Experimental data as given in paper PMC6342527.
Each block holds one substance with its values, some of them ahead of it.

Key:
Assay in all cases: cryo-EM structure; single-particle cryo-EM of SEC-purified channel in 20 mM Tris pH 7.5, 50 mM NaCl, 1 mM DDM, 0.1 mM CHS; 1 uM CaCl2 added (Ca2+-bound); homopentamer
[1] = target: chicken BEST1, residues 1-345 (BEST1_(345)) (chicken)
[2] = target: chicken BEST1, residues 1-345, W287F mutant (BEST1_(345) W287F) (chicken)
[3] = target: chicken BEST1, residues 1-405 (BEST1_(405)) (chicken)

stoichiometry N [1]: 5
Substance: chicken BEST1, residues 1-345 (BEST1_(345)) (domain or fragment)

stoichiometry N [2]: 5
Substance: chicken BEST1, residues 1-345, W287F mutant (BEST1_(345) W287F) (domain or fragment)

stoichiometry N [3]: 5
Substance: chicken BEST1, residues 1-405 (BEST1_(405)) (domain or fragment)
